Laboratory results reported in patent publication US10047131B2, “Peptides and combination of peptides for use in immunotherapy against ovarian cancer and other cancers” (immatics biotechnologies GmbH, priority 2015, dated 2018).

The substances below were run against HLA-A*02:01 (Homo sapiens, UniProt P04439, D140Y/D185E/D98H/E176V/E277Q/G131W/G231S/I119V/I121R/I166T/I218V/L300P/L318F/N151K/N90K/P208A/P217A/Q86G/Q94H/R138H/R169H/T345S) (assay: MHC binding assay (UV-ligand exchange, ELISA of exchange yield)). Settings: binding to HLA-A*02:01, UV-ligand exchange.
Outline: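 Peptide–MHC complexes made by UV-ligand exchange, where a UV-cleavable peptide is replaced by the test peptide. Exchange yield measured by ELISA: complexes diluted 100-fold on streptavidin-coated plates, stabilized complexes detected with HRP anti-β2m, TMB read at 450 nm.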

Peptide exchange (MHC class I binding score, peptide exchange yield)	Substance
“++” (≥20% = ++)	440 (ALADGVTMQV; listed as Homo sapiens) [compound 440]
“+++” (≥50 = +++)	441 (ALLENPKMEL; listed as Homo sapiens) [compound 441]
“+++” (≥50 = +++)	442 (GLLGGGGVLGV; listed as Homo sapiens) [compound 442]
“+++” (≥50 = +++)	443 (GLWEIENNPTV; listed as Homo sapiens) [compound 443]
“+++” (≥50 = +++)	444 (GLLRDEALAEV; listed as Homo sapiens) [compound 444]
“+++” (≥50 = +++)	446 (QLIPALAKV; listed as Homo sapiens) [compound 446]
“++” (≥20% = ++)	447 (QLVPALAKV; listed as Homo sapiens) [compound 447]
“+++” (≥50 = +++)	448 (NLLETKLQL; listed as Homo sapiens) [compound 448]
“+++” (≥50 = +++)	449 (KLAEGLDIQL; listed as Homo sapiens) [compound 449]
“+++” (≥50 = +++)	450 (FMIDASVHPTL; listed as Homo sapiens) [compound 450]
“++” (≥20% = ++)	451 (LLLLDTVTMQV; listed as Homo sapiens) [compound 451]
“+++” (≥50 = +++)	452 (ILLEHGADPNL; listed as Homo sapiens) [compound 452]
“++” (≥20% = ++)	453 (KLLEATSAV; listed as Homo sapiens) [compound 453]
“+++” (≥50 = +++)	454 (KLPPPPPQA; listed as Homo sapiens) [compound 454]
“++” (≥20% = ++)	455 (SLLKEPQKVQL; listed as Homo sapiens) [compound 455]
“+++” (≥50 = +++)	456 (LLIGHLERV; listed as Homo sapiens) [compound 456]
“+++” (≥50 = +++)	457 (SLLPGNLVEKV; listed as Homo sapiens) [compound 457]

More lines, now with the values behind:

Substance	Peptide exchange (MHC class I binding score, peptide exchange yield)
389 (LLADVTHLL; listed as Homo sapiens) [compound 389]	“++” (≥20% = ++)
390 (ALFMKQIYL; listed as Homo sapiens) [compound 390]	“+++” (≥50 = +++)
391 (YVYPQRLNFV; listed as Homo sapiens) [compound 391]	“+++” (≥50 = +++)
392 (ALLHPQGFEV; listed as Homo sapiens) [compound 392]	“++” (≥20% = ++)
393 (GLLDTQTSQVLTA; listed as Homo sapiens) [compound 393]	“++” (≥20% = ++)
394 (LLAVIGGLVYL; listed as Homo sapiens) [compound 394]	“+++” (≥50 = +++)
395 (ALALGGIAVV; listed as Homo sapiens) [compound 395]	“++++” (≥75% = ++++)
396 (ALLPDLPAL; listed as Homo sapiens) [compound 396]	“+++” (≥50 = +++)
397 (YLFGERLLEC; listed as Homo sapiens) [compound 397]	“+++” (≥50 = +++)
398 (KLLEEDGTIITL; listed as Homo sapiens) [compound 398]	“++” (≥20% = ++)
399 (YLFEPLYHV; listed as Homo sapiens) [compound 399]	“+++” (≥50 = +++)
400 (SLLTEQDLWTV; listed as Homo sapiens) [compound 400]	“++” (≥20% = ++)
401 (ILLDDTGLAYI; listed as Homo sapiens) [compound 401]	“+++” (≥50 = +++)
402 (VLFSGALLGL; listed as Homo sapiens) [compound 402]	“++” (≥20% = ++)
403 (KLYDRILRV; listed as Homo sapiens) [compound 403]	“++” (≥20% = ++)
405 (ALYDVFLEV; listed as Homo sapiens) [compound 405]	“++” (≥20% = ++)
407 (YLMDLINFL; listed as Homo sapiens) [compound 407]	“+++” (≥50 = +++)

Substance	Peptide exchange (MHC class I binding score, peptide exchange yield)
408 (VLDDSIYLV; listed as Homo sapiens) [compound 408]	“++” (≥20% = ++)
409 (LLDAMNYHL; listed as Homo sapiens) [compound 409]	“++” (≥20% = ++)
412 (YLDDLNEGVYI; listed as Homo sapiens) [compound 412]	“++” (≥20% = ++)
426 (RLADKSVLV; listed as Homo sapiens) [compound 426]	“+++” (≥50 = +++)
427 (ALLPLSPYL; listed as Homo sapiens) [compound 427]	“+++” (≥50 = +++)
428 (KLGHTDILVGV; listed as Homo sapiens) [compound 428]	“++” (≥20% = ++)
429 (GLVNDLARV; listed as Homo sapiens) [compound 429]	“++” (≥20% = ++)
430 (HLYSSIEHLTT; listed as Homo sapiens) [compound 430]	“+++” (≥50 = +++)
431 (SLVNVVPKL; listed as Homo sapiens) [compound 431]	“++” (≥20% = ++)
432 (TLIEESAKV; listed as Homo sapiens) [compound 432]	“++” (≥20% = ++)
433 (AMLNEPWAV; listed as Homo sapiens) [compound 433]	“+++” (≥50 = +++)
434 (KVSNSGITRV; listed as Homo sapiens) [compound 434]	“++” (≥20% = ++)
436 (HLAEVSAEV; listed as Homo sapiens) [compound 436]	“+++” (≥50 = +++)
437 (SMAPGLVIQAV; listed as Homo sapiens) [compound 437]	“+++” (≥50 = +++)
438 (KLLPLAGLYL; listed as Homo sapiens) [compound 438]	“++++” (≥75% = ++++)
439 (YLLQEIYGI; listed as Homo sapiens) [compound 439]	“+++” (≥50 = +++)
